Reference: PMC7802950, “Characteristics and expression patterns of six α-galactosidases in cucumber (Cucumis sativus L.)” (PLoS ONE, 2021)

Tests used:
Conditions in all cases: pH and temperature of Km assay not stated
[1] = test system: T1, OC[C@H]1O[C@H](OC[C@H]2O[C@H](OC[C@H]3O[C@H](O[C@]4(CO)O[C@H](CO)[C@@H](O)[C@@H]4O)[C@H](O)[C@@H](O)[C@@H]3O)[C@H](O)[C@@H](O)[C@H]2O)[C@H](O)[C@@H](O)[C@H]1O; experiment: Lineweaver-Burk plot, hydrolysis; assay type: biochemical, Cucumis sativus
T1 construct: coding region in pAcHLT, baculovirus/Sf9 insect cells; 6xHis tag removed by thrombin

[2] = test system: T2, OC[C@H]1O[C@H](OC[C@H]2O[C@H](O[C@]3(CO)O[C@H](CO)[C@@H](O)[C@@H]3O)[C@H](O)[C@@H](O)[C@@H]2O)[C@H](O)[C@@H](O)[C@H]1O; experiment: Lineweaver-Burk plot, hydrolysis; assay type: biochemical, Cucumis sativus
T2 construct: coding region in pAcHLT, baculovirus/Sf9 insect cells; 6xHis tag removed by thrombin

[3] = test system: O=[N+]([O-])c1ccc(O[C@H]2O[C@H](CO)[C@H](O)[C@H](O)[C@H]2O)cc1; experiment: purified protein

Sequence of CsGAL3 (Cucumis sativus) (chain, as listed by the source): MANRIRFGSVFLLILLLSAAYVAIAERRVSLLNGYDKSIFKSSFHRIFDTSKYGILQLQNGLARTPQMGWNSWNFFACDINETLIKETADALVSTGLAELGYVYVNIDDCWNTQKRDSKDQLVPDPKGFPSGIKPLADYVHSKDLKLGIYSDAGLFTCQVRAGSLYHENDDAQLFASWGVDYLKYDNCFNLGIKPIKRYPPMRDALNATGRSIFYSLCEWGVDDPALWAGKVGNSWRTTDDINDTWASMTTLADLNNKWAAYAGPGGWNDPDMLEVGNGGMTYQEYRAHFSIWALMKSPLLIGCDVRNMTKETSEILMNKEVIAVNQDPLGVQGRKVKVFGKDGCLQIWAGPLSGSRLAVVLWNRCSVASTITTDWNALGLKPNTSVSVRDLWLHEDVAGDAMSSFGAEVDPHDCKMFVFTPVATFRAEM
Sequence of CsGAL2 (Cucumis sativus) (chain, as listed by the source): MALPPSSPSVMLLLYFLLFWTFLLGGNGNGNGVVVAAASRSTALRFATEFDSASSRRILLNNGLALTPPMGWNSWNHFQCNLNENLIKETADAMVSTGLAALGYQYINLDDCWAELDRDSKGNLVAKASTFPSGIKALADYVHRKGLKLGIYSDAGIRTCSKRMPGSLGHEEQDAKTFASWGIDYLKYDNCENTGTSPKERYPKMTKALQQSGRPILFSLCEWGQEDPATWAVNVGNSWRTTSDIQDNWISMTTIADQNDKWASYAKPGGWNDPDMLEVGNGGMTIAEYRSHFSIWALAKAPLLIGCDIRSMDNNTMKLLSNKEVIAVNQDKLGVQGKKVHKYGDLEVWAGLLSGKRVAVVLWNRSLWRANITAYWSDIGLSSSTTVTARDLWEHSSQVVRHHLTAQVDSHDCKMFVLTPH
Sequence of CsGAL1 (Cucumis sativus) (chain, as listed by the source): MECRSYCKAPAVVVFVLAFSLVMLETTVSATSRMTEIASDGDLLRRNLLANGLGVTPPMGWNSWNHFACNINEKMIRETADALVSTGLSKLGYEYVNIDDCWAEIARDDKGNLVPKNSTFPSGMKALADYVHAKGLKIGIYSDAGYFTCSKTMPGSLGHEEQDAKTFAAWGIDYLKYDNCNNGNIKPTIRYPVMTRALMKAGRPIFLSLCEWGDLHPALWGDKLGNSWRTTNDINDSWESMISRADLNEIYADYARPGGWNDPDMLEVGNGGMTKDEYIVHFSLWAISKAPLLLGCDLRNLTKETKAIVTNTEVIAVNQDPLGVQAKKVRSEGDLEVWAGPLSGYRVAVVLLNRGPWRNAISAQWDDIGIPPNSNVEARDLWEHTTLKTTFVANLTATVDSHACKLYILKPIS

CsGAL1 (Cucumis sativus)
Km [1]: 12.3 ± 1.92 mM
Km [2]: 4.71 ± 0.85 mM
Km [3]: 0.89 ± 0.12 mM

CsGAL2 (Cucumis sativus)
Km [1]: 11.85 ± 2.05 mM
Km [2]: 5.63 ± 0.67 mM
Km [3]: 1.35 ± 0.23 mM

CsGAL3 (Cucumis sativus)
Km [1]: 18.92 ± 2.56 mM
Km [2]: 3.24 ± 0.70 mM
Km [3]: 0.99 ± 0.10 mM
